Changes are numbered by the printed parent chain. Names may count otherwise. Values belong to the binder of their own block, whether it stands above or below them.
Experiments:
human PD-L1 [1] = molecular target: T1, human PD-L1 (human, UniProt Q9NZQ7 19-290); experiment: FACS, CHO-K1/hPD-L1 cells
T1 construct: whole, on cells; also called hPD-L1; CD274
Method: (§1) Specifically, the cells expressing PD-L1 were digested and resuspended in PBS buffer containing 2% BSA. The cells were adjusted to a cell density of 1×10⁶ cells/mL, respectively. The cells were seeded in a 96-well V-bottom plate (Corning, #3894) at 100 μL/well, and the antibody to be tested at 2×final concentration with 4-fold concentration gradient dilution was then added at 100 μL/well. The cells were incubated at 4° C. for 2 hours in the dark. After the incubation, the cells were rinsed twice by adding pre-chilled PBS containing 2% BSA at 100 μL/well, and centrifuged at 500 g at 4° C. for 5 minutes, and the supernatant was discarded. […] The cells were washed twice by adding pre-chilled PBS containing 2% BSA at 100 µL/well, and centrifuged at 500 g at 4° C. for 5 minutes, and the supernatant was discarded. Finally, the cells were resuspended in pre-chilled PBS buffer containing 2% BSA at 200 μL/well. The fluorescence signal values were read using a BD FACS CANTOII flow cytometer or ACEA NovoCyte flow cytometer, and the data were processed and analyzed using FlowJo v10 software (FlowJo, LLC).

human PD-L1 [2] = molecular target: T1, human PD-L1; experiment: FACS, NCI-H226 cells
Method: as §1

human CD40 [3] = molecular target: T2, human CD40 (human, UniProt P25942 21-277); experiment: FACS, Raji cells
T2 construct: whole, on cells; also called hCD40; TNFRSF5
Method: (§2) The cells were incubated at 4° C. for 1 hours in the dark. After the incubation, the cells were rinsed twice by adding pre-chilled PBS at 100 μL/well, and centrifuged at 500 g at 4° C. for 5 minutes, and the supernatant was discarded. Then, a fluorescent secondary antibody (goat anti-human IgG (H+L) secondary antibody, Alexa Fluor® 488 conjugate, Invitrogen, #A11013, 1:1000 dilution) was added at 100 μL/well, and the cells were incubated at 4° C. for 30 minutes in the dark. The cells were washed twice with pre-chilled PBS at 200 μL/well, and centrifuged at 500 g at 4° C. for 5 minutes, and the supernatant was discarded. Finally, the cells were resuspended in pre-chilled PBS at 200 μL/well. The fluorescence signal values were read using a BD FACS CANTOII flow cytometer or ACEA NovoCyte flow cytometer, and the data were processed and analyzed using FlowJo v10 software (FlowJo, LLC).

human CD40 [4] = molecular target: T2, human CD40; experiment: FACS, CHO-K1/hCD40 cells
Method: as §2

cynomolgus monkey PD-L1 = molecular target: T3, cynomolgus monkey PD-L1 (cynomolgus monkey); experiment: FACS, CHO-K1/cyPD-L1 cells
T3 construct: whole, on cells; also called cyPD-L1
Method: as §1

cynomolgus monkey CD40 = molecular target: T4, cynomolgus monkey CD40 (cynomolgus monkey); experiment: FACS, CHO-K1/cyCD40 cells
T4 construct: whole, on cells; also called cyCD40
Method: as §2

human PD-L1 [5] = molecular target: T1, human PD-L1; experiment: cell-based or functional assay
human CD40 [6] = molecular target: T2, human CD40; experiment: cell-based or functional assay

T1 sequence (Q9NZQ7 19-290): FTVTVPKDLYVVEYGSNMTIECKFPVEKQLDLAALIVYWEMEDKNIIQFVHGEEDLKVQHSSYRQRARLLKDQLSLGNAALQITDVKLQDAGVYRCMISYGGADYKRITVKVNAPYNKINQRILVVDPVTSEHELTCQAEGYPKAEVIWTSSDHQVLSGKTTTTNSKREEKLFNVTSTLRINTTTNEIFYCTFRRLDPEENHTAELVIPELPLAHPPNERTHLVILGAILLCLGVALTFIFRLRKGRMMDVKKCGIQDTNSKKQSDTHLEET
T2 sequence (P25942 21-277): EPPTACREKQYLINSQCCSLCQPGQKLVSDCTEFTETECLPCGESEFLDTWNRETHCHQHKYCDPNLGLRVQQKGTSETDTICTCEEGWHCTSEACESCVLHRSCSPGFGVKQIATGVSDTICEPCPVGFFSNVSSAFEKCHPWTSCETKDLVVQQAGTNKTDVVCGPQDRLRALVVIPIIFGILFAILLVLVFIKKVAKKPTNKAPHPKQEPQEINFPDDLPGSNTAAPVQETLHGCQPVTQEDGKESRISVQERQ

B1: PR007276 (bispecific antibody, human IgG1, kappa)
heavy: QVQLVESGGGVVQPGMSLRLSCAASGFDFSSYGMYWVRQAPGKGQEWVASIRYTGTEKHYADSVKGRFTISRDNSKNTLYLEMNSLRVEDTAVYYCAKNRALFGVIPDDSDIRGQGTMVTVSSGGGGSQVQLVQSGAEVKKPGASVKVSCKASGYTFAGYYMYWVRQAPGQGLEWMGWINPDSGAPTYAQKFQGRVTMTRDTSISTAYMELSRLRSDDTAVYYCAREKIYYGSGNYYPSFDYWGQGTLVTVSSASTKGPSVFPLAPSSKSTSGGTAALGCLVKDYFPEPVTVSWNSGALTSGVHTFPAVLQSSGLYSLSSVVTVPSSSLGTQTYICNVNHKPSNTKVDKKVEPKSCDKTHTCPPCPAPEAAGAPSVFLFPPKPKDTLMISRTPEVTCVVVDVSHEDPEVKFNWYVDGVEVHNAKTKPREEQYNSTYRVVSVLTVLHQDWLNGKEYKCKVSNKALPAPIEKTISKAKGQPREPQVYTLPPSREEMTKNQVSLTCLVKGFYPSDIAVEWESNGQPENNYKTTPPVLDSDGSFFLYSKLTVDKSRWQQGNVFSCSVMHEALHNHYTQKSLSLSPGK
light: DIQLTQSPSFLSASVGDRVTITCRASQGISSYLAWYQQKPGKAPKLLIYAASTLQSGVPSRFSGSGSGTEFTLTISSLQPEDFATYYCQQLASYPWTFGQGTKVEIKRTVAAPSVFIFPPSDEQLKSGTASVVCLLNNFYPREAKVQWKVDNALQSGNSQESVTEQDSKDSTYSLSSTLTLSKADYEKHKVYACEVTHQGLSSPVTKSFNRGEC
notes: VH of PR006248 (PD-L1) - GS_5 - heavy chain of CD40 IgG PR006495; human IgG1 L234A/L235A/G237A; also called PD-L1×CD40
EC50 (human PD-L1 [1]): 1.18 nM
Maximum MFI (human PD-L1 [1]): 19700 MFI
EC50 (human PD-L1 [2]): 0.569 nM
Maximum MFI (human PD-L1 [2]): 927 MFI
EC50 (human CD40 [3]): 1.45 nM
Maximum MFI (human CD40 [3]): 7570 MFI
EC50 (human CD40 [4]): 2.35 nM
Maximum MFI (human CD40 [4]): 14300 MFI
EC50 (cynomolgus monkey PD-L1): 0.656 nM
Maximum MFI (cynomolgus monkey PD-L1): 4570 MFI
EC50 (cynomolgus monkey CD40): 2.62 nM
Maximum MFI (cynomolgus monkey CD40): 57000 MFI
EC50, Jurkat-NFAT-hPD1 reporter (human PD-L1 [5]): 0.273 nM
Maximum (RLU), Jurkat-NFAT-hPD1 reporter (human PD-L1 [5]): 4060 RLU
EC50, HEK293-hCD40-NFκB reporter, + CHO-K1 (human CD40 [6]): 0.22 nM
EC50, HEK293-hCD40-NFκB reporter, + CHO-K1/hPD-L1 (human CD40 [6]): 0.08 nM
Maximum (RLU), HEK293-hCD40-NFκB reporter, + CHO-K1 (human CD40 [6]): 239000 RLU
Maximum (RLU), HEK293-hCD40-NFκB reporter, + CHO-K1/hPD-L1 (human CD40 [6]): 379000 RLU

B2: PR007617 (bispecific antibody, human IgG1, kappa)
heavy: QVQLVESGGGVVQPGMSLRLSCAASGFDFSSYGMYWVRQAPGKGQEWVASIRYTGTEKHYADSVKGRFTISRDNSKNTLYLEMNSLRVEDTAVYYCAKNRAIFGVIPDDSDIRGQGTMVTVSSGGSQVQLVQSGAEVKKPGASVKVSCKASGYTFAGYYMYWVRQAPGQGLEWMGWINPDSGAPTYAQKFQGRVTMTRDTSISTAYMELSRLRSDDTAVYYCAREKIYYGSGNYYPSFDYWGQGTLVTVSSASTKGPSVFPLAPSSKSTSGGTAALGCLVKDYFPEPVTVSWNSGALTSGVHTFPAVLQSSGLYSLSSVVTVPSSSLGTQTYICNVNHKPSNTKVDKKVEPKSCDKTHTCPPCPAPEAAGAPSVFLFPPKPKDTLMISRTPEVTCVVVDVSHEDPEVKFNWYVDGVEVHNAKTKPREEQYNSTYRVVSVLTVLHQDWLNGKEYKCKVSNKALPAPIEKTISKAKGQPREPQVYTLPPSREEMTKNQVSLTCLVKGFYPSDIAVEWESNGQPENNYKTTPPVLDSDGSFFLYSKLTVDKSRWQQGNVFSCSVMHEALHNHYTQKSLSLSPGK
light: B1 light
notes: VH of PR006246 (PD-L1) - GS_3 - heavy chain of CD40 IgG PR006495; human IgG1 L234A/L235A/G237A; also called PD-L1×CD40
EC50 (human PD-L1 [1]): 1.01 nM
Maximum MFI (human PD-L1 [1]): 20200 MFI
EC50 (human PD-L1 [2]): 0.337 nM
Maximum MFI (human PD-L1 [2]): 831 MFI
EC50 (human CD40 [3]): 1.27 nM
Maximum MFI (human CD40 [3]): 6850 MFI
EC50 (human CD40 [4]): 1.96 nM
Maximum MFI (human CD40 [4]): 16800 MFI
EC50 (cynomolgus monkey PD-L1): 0.635 nM
Maximum MFI (cynomolgus monkey PD-L1): 4830 MFI
EC50 (cynomolgus monkey CD40): 2.45 nM
Maximum MFI (cynomolgus monkey CD40): 58700 MFI
EC50, Jurkat-NFAT-hPD1 reporter (human PD-L1 [5]): 0.157 nM
Maximum (RLU), Jurkat-NFAT-hPD1 reporter (human PD-L1 [5]): 2190 RLU

Further binders by falling EC50 (human PD-L1 [1]), results first:

EC50 (human PD-L1 [1]): 1.13 nM
Maximum MFI (human PD-L1 [1]): 19900 MFI
EC50 (human PD-L1 [2]): 0.503 nM
Maximum MFI (human PD-L1 [2]): 921 MFI
EC50 (human CD40 [3]): 1.46 nM
Maximum MFI (human CD40 [3]): 7600 MFI
EC50 (human CD40 [4]): 2.13 nM
Maximum MFI (human CD40 [4]): 14200 MFI
EC50 (cynomolgus monkey PD-L1): 0.632 nM
Maximum MFI (cynomolgus monkey PD-L1): 4610 MFI
EC50 (cynomolgus monkey CD40): 3.63 nM
Maximum MFI (cynomolgus monkey CD40): 65000 MFI
EC50, Jurkat-NFAT-hPD1 reporter (human PD-L1 [5]): 0.19 nM
Maximum (RLU), Jurkat-NFAT-hPD1 reporter (human PD-L1 [5]): 3840 RLU
B4: PR007281 (bispecific antibody, human IgG1, kappa)
heavy: B1 heavy with L102I
light: B1 light with A92V
notes: VH of PR006246 (PD-L1) - GS_5 - heavy chain of CD40 IgG PR006504; human IgG1 L234A/L235A/G237A; also called PD-L1×CD40

EC50 (human PD-L1 [1]): 1.04 nM
Maximum MFI (human PD-L1 [1]): 20100 MFI
EC50 (human PD-L1 [2]): 0.322 nM
Maximum MFI (human PD-L1 [2]): 902 MFI
EC50 (human CD40 [3]): 1.23 nM
Maximum MFI (human CD40 [3]): 6700 MFI
EC50 (human CD40 [4]): 2.22 nM
Maximum MFI (human CD40 [4]): 16800 MFI
EC50 (cynomolgus monkey PD-L1): 0.69 nM
Maximum MFI (cynomolgus monkey PD-L1): 4870 MFI
EC50 (cynomolgus monkey CD40): 3.07 nM
Maximum MFI (cynomolgus monkey CD40): 67900 MFI
EC50, Jurkat-NFAT-hPD1 reporter (human PD-L1 [5]): 0.12 nM
Maximum (RLU), Jurkat-NFAT-hPD1 reporter (human PD-L1 [5]): 2470 RLU
B3: PR007618 (bispecific antibody, human IgG1, kappa)
heavy: B2 heavy with I102L
light: B1 light
notes: VH of PR006248 (PD-L1) - GS_3 - heavy chain of CD40 IgG PR006495; human IgG1 L234A/L235A/G237A; also called PD-L1×CD40
